# Measurements: patent US6670167
# System: T1, Syntide-2, synthetic substrate peptide PLARTLSVAGLPGKK
# T1 sequence: PLARTLSVAGLPGKK
substance,measurement,value
"Proteolytically cleaved Chk1, preparation HA2-022",Activity,+38 fold
same,Rate/min (/min (at 2 nM enzyme)),0.0208
same,activity comparison,the cleaved preparation was 38 fold more active than the non-cleaved preparation
